From patent US20090099826A1 (published 2009) come the findings set out here.

Series [1] deals with the molecule itself. The series is described as follows: sedimentation equilibrium, analytical ultracentrifugation (self-association). As to the method:
To accurately determine the basal state of caspase-9 in solution, the molecular weight of caspase-9 was examined by sedimentation equilibrium analysis using analytical ultra-centrifugation (Table 2). […] In addition, this analysis confirms that the XIAP-BIR3 domain forms a stable hetero-dimer with the caspase-9 monomer (Table 2).
Analytical ultracentrifugation. Protein samples were prepared in 10 mM Tris-HCl, pH 8.0, 100 mM NaCl, and 2 mm DTT. All sedimentation equilibrium experiments were carried out at 4° C. using a Beckman Optima XL-A analytical ultracentrifuge equipped with an An60 Ti rotor and using six-channel, 12 mm path length, charcoal-filled Epon centerpieces and quartz windows. Data were collected at four rotor speeds (10,000, 15,000, 20,000, and 25,000 rpm) and represent the average of twenty scans using a scan step-size of 0.001 cm. Partial specific volumes and solution density were calculate using the Sednterp program. Data were analyzed using the WinNONOLIN program from the Analytical Ultracentrifugation Facility at the University of Connecticut (Storrs, Conn.).

Series [2] has as its target XIAP-BIR3 point mutant P325G.
For series [3], the target named is T1, BIR3 domain of XIAP (residues 252-350), wild type.
T1 chain: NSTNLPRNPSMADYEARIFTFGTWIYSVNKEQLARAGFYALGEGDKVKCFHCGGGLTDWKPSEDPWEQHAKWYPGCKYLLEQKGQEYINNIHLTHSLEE

Series [4] concerns the target XIAP-BIR3 point mutant G326E.
Series [5] concerns the target XIAP-BIR3 point mutant L344A.
Series [6] has as its target XIAP-BIR3 point mutant H343A.

B1: Procaspase-9 zymogen (residues 139-416) (enzyme, mammalian, UniProt P55211 139-416, looked up)
chain: VGALESLRGNADLAYILSMEPCGHCLIINNVNFCRESGLRTRTGSNIDCEKLRRRFSSLHFMVEVKGDLTAKKMVLALLELAQQDHGALDCCVVVILSHGCQASHLQFPGAVYGTDGCPVSVEKIVNIFNGTSCPSLGGKPKLFFIQACGGEQKDHGFEVASTSPEDESPGSNPEPDATPFQEGLRTFDQLDAISSLPTPSDIFVSYSTFPGFVSWRDPKSGSWYVETLDDIFEQWAHSEDLQSLLLRVANAVSVKGIYKQMPGCFNFLRKKLFFKTS
notes: range 139-416; Used here for self-association; also called unprocessed procaspase-9 zymogen
Consider B1, for which, in series [1], the binding result is “no binding (tested: 20 µM)”.

B2: caspase-9, wild-type, processed catalytic domain (residues 139-315 and 316-416) (protein)
chain 1: VGALESLRGNADLAYILSMEPCGHCLIINNVNFCRESGLRTRTGSNIDCEKLRRRFSSLHFMVEVKGDLTAKKMVLALLELAQQDHGALDCCVVVILSHGCQASHLQFPGAVYGTDGCPVSVEKIVNIFNGTSCPSLGGKPKLFFIQACGGEQKDHGFEVASTSPEDESPGSNPEPD
chain 2: ATPFQEGLRTFDQLDAISSLPTPSDIFVSYSTFPGFVSWRDPKSGSWYVETLDDIFEQWAHSEDLQSLLLRVANAVSVKGIYKQMPGCFNFLRKKLFFKTS
As to B2, the “cleavage of procaspase-3 (C163A) by caspase-9, SDS-PAGE” value is reported as “led to loss of this inhibition as judged by the cleavage of procaspase-3 precursor” in series [2]; “incubation with the WT BIR3 protein (residues 252-350) resulted in the efficient inhibition of the activity (lane 2)” in series [3]; “led to loss of this inhibition as judged by the cleavage of procaspase-3 precursor” in series [4]; “led to loss of this inhibition as judged by the cleavage of procaspase-3 precursor” in series [5]; “led to loss of this inhibition as judged by the cleavage of procaspase-3 precursor” in series [6].
